Reference: the supplement of paper PMC10065799, “High-throughput profiling of sequence recognition by tyrosine kinases and SH2 domains using bacterial peptide display” (eLife, 2023)

How the values were obtained:
AncSZ = experiment: phosphorylation enrichment, bacterial display (enrichment ratio); higher = better substrate or ligand; peptides without Tyr show the background
EPHB1 = EPHB1 (UniProt P54762); experiment: as above
EPHB2 = EPHB2 (UniProt P29323); experiment: as above
FGFR1 = FGFR1 (UniProt P11362); experiment: as above
FGFR3 = FGFR3 (UniProt P22607); experiment: as above
Fer (mouse) = experiment: as above
Fes = Fes (UniProt P07332); experiment: as above
Fyn = Fyn (UniProt P06241); experiment: as above
Hck = Hck (UniProt P08631); experiment: as above
Jak2 = Jak2 (UniProt O60674); experiment: as above
MERTK = MERTK (UniProt Q12866); experiment: as above
c-Abl (mouse) = experiment: as above
c-Src = experiment: as above
Grb2 SH2 = Grb2 SH2 (UniProt P62993); experiment: SH2 binding enrichment of the phosphorylated peptide, bacterial display (enrichment ratio); higher = better substrate or ligand; peptides without Tyr show the background
SHP2-C SH2 = experiment: as above
c-Src SH2 = experiment: as above
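Throughout, for SH2 binding enrichment of the phosphorylated peptide, bacterial display: peptide library displayed on the E. coli surface as eCPX fusions, selected cells deep-sequenced, score is each peptide's frequency after selection divided by its frequency in the input.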
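Throughout, for phosphorylation enrichment, bacterial display: 11-residue human phosphosite peptides and single-mutation variants displayed on the E. coli surface, counted by deep sequencing, each peptide's frequency after selection divided by its frequency in the unselected input library; frequency after pTyr selection over input frequency; kinase dosed for 20-30% of maximal phosphorylation in three min.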

Sequence of EPHB1 (P54762 whole entry, looked up): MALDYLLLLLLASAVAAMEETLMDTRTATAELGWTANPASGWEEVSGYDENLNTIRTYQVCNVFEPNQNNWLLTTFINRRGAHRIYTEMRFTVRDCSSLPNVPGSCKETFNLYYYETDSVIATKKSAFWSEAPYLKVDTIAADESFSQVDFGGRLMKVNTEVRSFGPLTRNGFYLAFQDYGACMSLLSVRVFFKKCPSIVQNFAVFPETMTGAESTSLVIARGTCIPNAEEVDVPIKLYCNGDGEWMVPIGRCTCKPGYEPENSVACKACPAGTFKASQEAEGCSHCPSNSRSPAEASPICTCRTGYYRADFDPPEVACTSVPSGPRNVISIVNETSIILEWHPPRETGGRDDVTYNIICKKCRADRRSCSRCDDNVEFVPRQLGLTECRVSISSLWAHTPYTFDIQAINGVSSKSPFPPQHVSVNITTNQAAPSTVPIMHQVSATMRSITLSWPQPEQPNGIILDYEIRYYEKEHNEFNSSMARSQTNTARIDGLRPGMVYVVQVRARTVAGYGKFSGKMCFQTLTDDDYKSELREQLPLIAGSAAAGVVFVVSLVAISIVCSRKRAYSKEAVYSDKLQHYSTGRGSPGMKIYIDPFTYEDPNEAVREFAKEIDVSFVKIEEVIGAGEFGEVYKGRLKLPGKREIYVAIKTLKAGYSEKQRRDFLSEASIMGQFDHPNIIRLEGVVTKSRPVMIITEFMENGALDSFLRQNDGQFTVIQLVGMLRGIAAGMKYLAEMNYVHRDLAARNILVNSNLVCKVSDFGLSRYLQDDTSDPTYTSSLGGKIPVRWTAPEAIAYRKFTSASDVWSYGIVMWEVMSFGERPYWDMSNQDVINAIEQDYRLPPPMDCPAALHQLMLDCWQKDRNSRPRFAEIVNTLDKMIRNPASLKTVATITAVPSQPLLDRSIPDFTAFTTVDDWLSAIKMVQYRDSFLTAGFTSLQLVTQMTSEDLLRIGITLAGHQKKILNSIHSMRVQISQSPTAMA
Sequence of Hck (P08631 whole entry, looked up): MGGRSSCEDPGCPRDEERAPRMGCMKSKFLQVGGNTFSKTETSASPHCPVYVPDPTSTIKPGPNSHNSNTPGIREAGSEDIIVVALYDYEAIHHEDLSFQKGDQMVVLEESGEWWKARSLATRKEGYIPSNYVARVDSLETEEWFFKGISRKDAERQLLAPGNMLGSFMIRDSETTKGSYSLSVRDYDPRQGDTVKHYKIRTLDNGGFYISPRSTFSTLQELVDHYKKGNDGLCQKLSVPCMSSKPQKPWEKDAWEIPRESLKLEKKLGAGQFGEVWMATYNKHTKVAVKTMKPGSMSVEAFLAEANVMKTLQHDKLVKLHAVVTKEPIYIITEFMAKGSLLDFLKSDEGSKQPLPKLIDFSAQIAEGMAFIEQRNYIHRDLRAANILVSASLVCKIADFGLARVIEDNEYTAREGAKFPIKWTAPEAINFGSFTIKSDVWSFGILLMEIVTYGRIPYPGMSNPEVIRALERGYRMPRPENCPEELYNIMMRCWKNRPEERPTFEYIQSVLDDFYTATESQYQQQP
Sequence of Jak2 (O60674 whole entry, looked up): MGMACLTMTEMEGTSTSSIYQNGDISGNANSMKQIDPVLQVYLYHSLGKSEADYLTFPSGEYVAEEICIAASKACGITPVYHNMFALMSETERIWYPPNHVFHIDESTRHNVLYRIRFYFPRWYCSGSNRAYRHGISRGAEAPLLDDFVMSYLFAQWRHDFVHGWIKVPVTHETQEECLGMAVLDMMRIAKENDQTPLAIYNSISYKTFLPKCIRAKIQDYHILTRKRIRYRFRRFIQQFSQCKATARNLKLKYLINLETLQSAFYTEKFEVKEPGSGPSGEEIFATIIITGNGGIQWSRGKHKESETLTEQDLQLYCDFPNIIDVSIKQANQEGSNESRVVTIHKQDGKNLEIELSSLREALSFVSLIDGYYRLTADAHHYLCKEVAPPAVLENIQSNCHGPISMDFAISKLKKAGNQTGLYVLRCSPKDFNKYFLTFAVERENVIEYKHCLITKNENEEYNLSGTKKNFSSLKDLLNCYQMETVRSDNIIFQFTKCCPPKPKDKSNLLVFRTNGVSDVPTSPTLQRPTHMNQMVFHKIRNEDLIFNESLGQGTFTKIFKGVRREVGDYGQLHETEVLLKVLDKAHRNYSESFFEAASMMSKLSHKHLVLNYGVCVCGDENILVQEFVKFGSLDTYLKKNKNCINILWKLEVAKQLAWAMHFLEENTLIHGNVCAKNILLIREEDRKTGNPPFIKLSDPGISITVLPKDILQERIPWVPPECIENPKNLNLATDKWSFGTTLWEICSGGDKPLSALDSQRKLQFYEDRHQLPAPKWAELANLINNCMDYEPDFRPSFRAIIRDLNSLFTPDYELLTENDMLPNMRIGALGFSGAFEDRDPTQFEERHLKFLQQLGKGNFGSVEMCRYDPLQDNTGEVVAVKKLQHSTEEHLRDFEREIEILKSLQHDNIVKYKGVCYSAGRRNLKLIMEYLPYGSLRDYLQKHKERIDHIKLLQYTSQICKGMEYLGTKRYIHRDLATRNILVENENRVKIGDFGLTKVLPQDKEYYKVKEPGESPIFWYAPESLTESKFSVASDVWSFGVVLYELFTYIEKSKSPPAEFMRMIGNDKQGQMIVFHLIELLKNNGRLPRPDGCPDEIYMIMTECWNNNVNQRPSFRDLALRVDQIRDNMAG
Sequence of Grb2 SH2 (P62993 whole entry, looked up): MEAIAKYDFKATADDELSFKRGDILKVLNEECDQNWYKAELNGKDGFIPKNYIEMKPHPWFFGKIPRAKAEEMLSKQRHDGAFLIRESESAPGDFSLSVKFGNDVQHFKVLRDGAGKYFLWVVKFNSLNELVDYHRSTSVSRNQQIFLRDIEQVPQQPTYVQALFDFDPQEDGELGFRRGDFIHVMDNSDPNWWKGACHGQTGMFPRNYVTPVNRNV
Sequence of FGFR3 (P22607 whole entry, looked up): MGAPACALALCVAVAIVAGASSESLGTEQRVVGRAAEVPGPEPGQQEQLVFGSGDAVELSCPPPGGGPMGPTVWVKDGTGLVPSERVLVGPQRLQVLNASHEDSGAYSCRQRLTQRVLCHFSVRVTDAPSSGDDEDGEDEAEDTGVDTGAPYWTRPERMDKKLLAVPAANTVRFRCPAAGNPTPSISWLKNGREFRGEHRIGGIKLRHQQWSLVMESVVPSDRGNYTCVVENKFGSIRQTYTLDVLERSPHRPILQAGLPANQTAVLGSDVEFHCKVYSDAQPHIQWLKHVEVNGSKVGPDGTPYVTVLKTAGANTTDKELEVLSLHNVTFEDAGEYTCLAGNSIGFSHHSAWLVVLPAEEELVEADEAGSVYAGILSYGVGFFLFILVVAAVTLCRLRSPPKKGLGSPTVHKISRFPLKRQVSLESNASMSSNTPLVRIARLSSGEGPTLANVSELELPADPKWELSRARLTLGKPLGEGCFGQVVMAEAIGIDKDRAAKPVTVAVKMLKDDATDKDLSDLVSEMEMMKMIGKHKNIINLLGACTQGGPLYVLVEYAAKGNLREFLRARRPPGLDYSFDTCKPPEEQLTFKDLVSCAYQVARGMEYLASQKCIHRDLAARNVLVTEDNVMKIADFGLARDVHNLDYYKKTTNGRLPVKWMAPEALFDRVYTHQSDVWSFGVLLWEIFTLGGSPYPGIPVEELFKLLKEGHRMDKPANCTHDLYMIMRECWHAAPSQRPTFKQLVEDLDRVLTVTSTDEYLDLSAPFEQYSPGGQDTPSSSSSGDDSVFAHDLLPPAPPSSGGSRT
Sequence of Fes (P07332 whole entry, looked up): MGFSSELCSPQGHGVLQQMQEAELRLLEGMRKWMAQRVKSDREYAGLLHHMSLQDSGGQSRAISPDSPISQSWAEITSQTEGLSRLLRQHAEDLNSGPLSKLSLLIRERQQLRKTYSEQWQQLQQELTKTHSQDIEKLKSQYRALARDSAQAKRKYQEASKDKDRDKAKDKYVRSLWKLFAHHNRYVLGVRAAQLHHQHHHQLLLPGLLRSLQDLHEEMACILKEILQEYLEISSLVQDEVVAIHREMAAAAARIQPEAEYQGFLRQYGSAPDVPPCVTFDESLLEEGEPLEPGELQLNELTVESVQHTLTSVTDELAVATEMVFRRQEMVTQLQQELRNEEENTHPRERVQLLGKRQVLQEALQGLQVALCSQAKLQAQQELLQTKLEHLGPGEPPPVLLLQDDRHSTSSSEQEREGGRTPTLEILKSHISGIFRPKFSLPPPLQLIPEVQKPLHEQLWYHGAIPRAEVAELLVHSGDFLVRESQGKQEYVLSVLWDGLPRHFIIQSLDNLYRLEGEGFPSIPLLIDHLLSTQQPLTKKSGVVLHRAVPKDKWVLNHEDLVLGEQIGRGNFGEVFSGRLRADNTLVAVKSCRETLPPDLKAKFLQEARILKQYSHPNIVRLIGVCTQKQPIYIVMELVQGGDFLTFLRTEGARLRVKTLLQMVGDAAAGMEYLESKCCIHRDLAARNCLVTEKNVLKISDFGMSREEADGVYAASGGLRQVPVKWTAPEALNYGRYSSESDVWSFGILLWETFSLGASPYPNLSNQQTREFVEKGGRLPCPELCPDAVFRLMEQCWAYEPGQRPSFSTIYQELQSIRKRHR
Sequence of Fyn (P06241 whole entry, looked up): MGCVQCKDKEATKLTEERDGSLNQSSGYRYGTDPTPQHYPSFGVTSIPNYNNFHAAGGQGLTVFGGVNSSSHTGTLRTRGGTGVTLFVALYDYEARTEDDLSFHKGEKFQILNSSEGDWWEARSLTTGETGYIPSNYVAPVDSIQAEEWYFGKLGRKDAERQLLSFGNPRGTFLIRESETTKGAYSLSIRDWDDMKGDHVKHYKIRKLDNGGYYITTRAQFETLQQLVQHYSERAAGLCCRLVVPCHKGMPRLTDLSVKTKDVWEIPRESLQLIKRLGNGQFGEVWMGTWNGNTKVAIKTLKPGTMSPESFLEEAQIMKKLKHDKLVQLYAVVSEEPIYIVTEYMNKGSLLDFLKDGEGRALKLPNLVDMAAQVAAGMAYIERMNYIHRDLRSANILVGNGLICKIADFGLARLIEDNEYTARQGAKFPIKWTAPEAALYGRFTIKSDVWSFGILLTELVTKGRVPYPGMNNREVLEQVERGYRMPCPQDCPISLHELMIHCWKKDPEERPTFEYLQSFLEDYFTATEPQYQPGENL

Sequence	phosphorylation enrichment (AncSZ)	phosphorylation enrichment (EPHB1)	phosphorylation enrichment (EPHB2)	phosphorylation enrichment (FGFR1)	phosphorylation enrichment (FGFR3)	phosphorylation enrichment (Fer (mouse))	phosphorylation enrichment (Fes)	phosphorylation enrichment (Fyn)	phosphorylation enrichment (Hck)	phosphorylation enrichment (Jak2)	phosphorylation enrichment (MERTK)	phosphorylation enrichment (c-Abl (mouse))	phosphorylation enrichment (c-Src)	SH2 binding enrichment (Grb2 SH2)	SH2 binding enrichment (SHP2-C SH2)	SH2 binding enrichment (c-Src SH2)
ADKSAYLMGPN [MYH7_Y386_L390P]	0.636	0.386	0.391	0.473	0.545	0.371	0.637	0.544	0.508	0.7	0.408	0.441	0.631	0.766	0.729	0.482
CHRQLYHKCTH [F12_Y58_Y53C]	0.497	0.447	0.461	0.494	0.576	0.491	0.796	0.402	0.471	0.667	0.543	0.599	0.457	1.53	1.3	1.5
SRGLAYPARPA [LEMD2_Y122]	0.359	0.328	0.332	0.34	0.266	0.288	0.419	0.331	0.339	0.401	0.339	0.386	0.335	0.825	0.606	0.413
SARSAYQEAID [SFN_Y151_M155I]	1.02	0.461	0.405	0.573	0.685	0.395	0.994	0.434	0.523	0.875	0.471	0.83	0.516	0.896	0.705	1.06
PVQDAYQKVVA [HBB_Y131_A129D]	0.526	0.445	0.308	0.397	0.429	0.493	0.453	0.366	0.353	0.425	0.379	0.421	0.386	0.983	0.956	1.03
NLMPAYYKCIQ [CYP21A2_Y190]	1.09	0.708	0.496	0.57	0.866	0.626	1.28	0.432	0.507	1.34	0.57	1.24	0.51	0.596	0.444	0.522
KLQKFYRKNPD [EHHADH_Y683_Q685K_YF]	0.447	0.348	0.32	0.401	0.329	0.302	0.541	0.389	0.402	0.469	0.449	0.549	0.48	0.86	0.702	0.638
LMIKEYLTKEL [BAG3_Y457_E455K]	0.867	0.524	0.612	0.437	0.72	0.491	1.36	0.469	0.571	0.896	0.411	0.666	0.353	1.03	1	0.621
PASWTYVRWFD [PTDSS1_Y274]	1.71	1.12	1.1	0.907	1.35	0.729	1.79	0.669	1.14	1.79	0.51	1.04	1.01	1.47	1.65	0.766
HSFQCYGRNEA [ENTPD3_Y262]	1.23	0.875	1.04	0.761	1.18	0.759	1.28	0.711	0.797	0.594	0.585	0.736	0.417	0.945	0.82	0.529
SYTDPYAQPSL [KMT2D_Y2378_P2382S]	1.18	0.583	0.568	3.11	1.89	0.479	1	0.611	0.567	0.718	0.532	0.82	0.576	0.823	0.775	2.6
KVALVYGQMNQ [ATP5F1B_Y269_E274Q]	0.726	0.496	0.641	0.424	0.634	0.506	1.27	2.16	1.78	0.841	0.425	0.829	3.17	0.703	0.636	0.434
KTKIGYSPLHQ [ANK1_Y735_L733I]	0.489	0.326	0.449	0.422	0.384	0.434	0.512	0.408	0.435	0.49	0.466	0.456	0.425	0.903	0.827	0.398
KEAALYPHLLP [SQSTM1_Y383_P387L]	0.648	0.427	0.544	0.512	0.481	0.419	0.757	0.405	0.438	0.649	0.432	0.549	0.366	0.87	0.645	0.436
KKHIPYSEHKS [CSNK1G2_Y206_R207S]	0.718	0.488	0.644	0.483	1.1	0.72	1.52	0.374	0.565	1.37	0.606	1.53	0.781	1.62	1.41	1.51
APRKVYDTQDD [ZFPL1_Y215_R218Q]	0.993	0.692	0.685	0.549	0.653	0.67	1.09	0.495	0.586	0.808	0.466	0.766	0.479	0.716	0.671	0.501
LDYNEYFRNLN [HPRT1_Y198_D201N]	2.08	0.559	0.751	0.596	0.844	0.48	1.14	0.49	0.69	1.79	0.382	0.849	0.657	0.81	0.967	0.507

Sequence	phosphorylation enrichment (AncSZ)	phosphorylation enrichment (EPHB1)	phosphorylation enrichment (EPHB2)	phosphorylation enrichment (FGFR1)	phosphorylation enrichment (FGFR3)	phosphorylation enrichment (Fer (mouse))	phosphorylation enrichment (Fes)	phosphorylation enrichment (Fyn)	phosphorylation enrichment (Hck)	phosphorylation enrichment (Jak2)	phosphorylation enrichment (MERTK)	phosphorylation enrichment (c-Abl (mouse))	phosphorylation enrichment (c-Src)	SH2 binding enrichment (Grb2 SH2)	SH2 binding enrichment (SHP2-C SH2)	SH2 binding enrichment (c-Src SH2)
DPEGAYTTRGG [EPHA3_Y779_A777G]	0.896	0.497	0.501	0.369	0.534	0.515	0.798	0.394	0.483	0.774	0.412	0.789	0.536	0.979	0.911	0.524
FIAVGYVDDSQ [HLA-A_Y51_T55S]	0.783	0.469	0.491	0.391	0.629	0.444	1.08	0.333	0.445	0.839	0.3	0.617	0.394	0.91	0.959	0.704
IKNSGYISRYL [EIF2AK3_Y585]	0.558	0.443	0.406	0.513	0.531	0.376	0.711	0.4	0.33	0.538	0.404	0.558	0.448	1.08	1.01	0.706
YGMSTYITRED [FNDC3B_Y180]	0.972	0.712	0.584	0.514	0.683	0.745	1.25	0.852	0.873	1.07	0.46	0.924	0.981	0.608	0.576	0.464
RPPFTYATLIR [FOXP3_Y342]	1.14	1.64	0.737	0.913	0.813	0.55	1.01	2.14	2.58	1.29	1.01	0.686	3.29	1.37	6.22	1.25
FSPGSNERETF [NF1_Y2192_Y2192N]	0.835	0.408	0.605	0.53	0.583	0.538	0.856	0.484	0.484	0.849	0.414	0.599	0.424	0.886	0.662	0.447
EFLRNYFTDKA [DSG2_Y775]	1.09	0.572	0.472	0.569	0.622	0.573	1.08	0.48	0.414	0.962	0.567	0.764	0.528	1.03	1.03	0.444
DDERGYRRVRS [GIGYF2_Y268]	0.563	0.306	0.398	0.386	0.407	0.406	0.593	0.366	0.353	0.461	0.455	0.563	0.461	0.86	0.623	0.656
EAIMTYVSSFF [ACTN4_Y260_K255E_YF]	1.02	0.621	0.726	0.501	0.675	0.468	1.04	0.778	0.643	0.9	0.422	0.842	0.975	0.659	0.642	0.493
VPVPGYTKVPE [SPRR3_Y146_L149V]	0.776	0.365	0.541	0.437	0.789	0.525	0.75	0.494	0.526	0.769	0.501	0.615	0.398	0.81	0.581	0.56
QDKDLYPCPGT [RLF_Y671_R668K]	1.36	0.701	0.857	0.744	0.785	0.562	1.18	0.652	0.625	0.996	0.613	0.726	0.483	0.832	0.801	0.658
KDFTKYVAFIE [KDM4B_Y31_N29T_YF]	0.849	0.55	0.626	0.442	0.623	0.422	1.06	0.521	0.462	0.879	0.481	0.614	0.457	0.894	1.79	0.674
KHASTYREAAT [DEAF1_Y483]	0.425	0.328	0.324	0.339	0.39	0.363	0.518	0.322	0.344	0.356	0.359	0.52	0.307	0.874	0.755	0.625
TNYRLYLRSLE [MTM1_Y71]	1.11	0.666	0.556	0.595	0.776	0.524	1.3	0.552	0.555	1.22	0.554	1.31	0.504	0.9	1.09	0.591
ETPSEYLEIVR [TMEM130_Y412]	1.17	0.848	0.608	0.645	0.77	0.493	1.01	0.555	0.652	1.01	0.452	0.652	0.49	0.605	0.573	0.443
NFRTTCVNANE [KCNH2_Y475_Y475C]	0.974	0.53	0.605	0.528	0.619	0.464	0.955	0.53	0.483	0.979	0.423	0.808	0.428	0.723	0.536	0.387
